The data set concerns the molecule itself. The data set can be described thus: SEC-MALS (eluted at 198 kDa against the predicted 98 kDa) and analytical SEC with 0, 1M or 2M GuHCl. Here is the method: To confirm proper expression of the PTGFRN ECD, the purified protein was analyzed by size exclusion chromatography/multiangle light scattering (SEC-MALS), using BSA and an anti-VLA4 antibody as standards for comparison. Recombinant PTGFRN ECD was eluted at ˜2x its predicted molecular weight (198 kDa as opposed to the predicted molecular weight, 98 kDa; FIG. 20A). To determine whether PTGFRN ECD forms a homodimer in solution, recombinant PTGFRN ECD was run over an analytical SEC column (Tosoh, 7.8×30cm, G3000SW xl) in PBS in the absence of guanidium chloride (GuHCl) or in the presence of 1M or 2M guanidinium chloride (GuHCl).

B1: recombinant PTGFRN extracellular domain (ECD), purified, Fc tag removed with thrombin (receptor)
chain: VPTATLVRVVGTELVIPCNVSDYDGPSEQNFDWSFSSLGSSFVELASTWEVGFPAQLYQERLQRGEILLRRTANDAVELHIKNVQPSDQGHYKCSTPSTDATVQGNYEDTVQVKVLADSLHVGPSARPPPSLSLREGEPFELRCTAASASPLHTHLALLWEVHRGPARRSVLALTHEGRFHPGLGYEQRYHSGDVRLDTVGSDAYRLSVSRALSADQGSYRCIVSEWIAEQGNWQEIQEKAVEVATVVIQPSVLRAAVPKNVSVAEGKELDLTCNITTDRADDVRPEVTWSFSRMPDSTLPGSRVLARLDRDSLVHSSPHVALSHVDARSYHLLVRDVSKENSGYYYCHVSLWAPGHNRSWHKVAEAVSSPAGVGVTWLEPDYQVYLNASKVPGFADDPTELACRVVDTKSGEANVRFTVSWYYRMNRRSDNVVTSELLAVMDGDWTLKYGERSKQRAQDGDFIFSKEHTDTFNFRIQRTTEEDRGNYYCVVSAWTKQRNNSWVKSKDVFSKPVNIFWALEDSVLVVKARQPKPFFAAGNTFEMTCKVSSKNIKSPRYSVLIMAEKPVGDLSSPNETKYIISLDQDSVVKLENWTDASRVDGVVLEKVQEDEFRYRMYQTQVSDAGLYRCMVTAWSPVRGSLWREAATSLSNPIEIDFQTSGPIFNASVHSDTPSVIRGDLIKLFCIITVEGAALDPDDMAFDVSWFAVHSFGLDKAPVLLSSLDRKGIVTTSRRDWKSDLSLERVSVLEFLLQVHGSEDQDFGNYYCSVTPWVKSPTGSWQKEAEIHSKPVFITVKMDVLNAFKYP
notes: Expressed in Expi293 as signal peptide-ECD-PAR1 cleavage site-Fc; the Fc was removed with thrombin, so a remnant of the PAR1 site may remain; also called PTGFRN ECD; purified PTGFRN ECD
Turning to B1, the binding result was “binds”.

The record behind these values is patent publication US20250228964A1 (CODIAK BIOSCIENCES, published 2025).
